Results published in the supplement of paper PMC10567573.

B1: GMCL1 (parent)
chain: RPDTGDDAAGHGFCYCAGSHKRKR

Variants of: B1
Assay: protein stability index of a GFP-peptide fusion (GPS, HEK-293T) (PSI 1-6); higher = more stable
Conditions: c terminus: a fixed tail appended
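Note: lentivirally expressed fusions sorted by FACS into six bins by GFP to DsRed ratio, PSI derived from sequencing read proportions per bin multiplied by bin number.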

Variant | protein stability index
RPDTGDDAAGTGFCYCAGSHKRKR [H11T] | 4.18
RPDTGDDAAGPGFCYCAGSHKRKR [H11P] | 3.21
RPDTGDDAAGKGFCYCAGSHKRKR [H11K] | 3.16
RPDTGDDAAGNGFCYCAGSHKRKR [H11N] | 2.32
RPDTGDDAAGMGFCYCAGSHKRKR [H11M] | 3.15
RPDTGDDAAGRGFCYCAGSHKRKR [H11R] | 3.43
RPDTGDDAAGWGFCYCAGSHKRKR [H11W] | 2.95
RPDTGDDAAGQGFCYCAGSHKRKR [H11Q] | 3.22
RPDTGDDAAGLGFCYCAGSHKRKR [H11L] | 3.14
RPDTGDDAAGYGFCYCAGSHKRKR [H11Y] | 2.84
RPDTGDDAAGGGFCYCAGSHKRKR [H11G] | 3.18
RPDTGDDAAGIGFCYCAGSHKRKR [H11I] | 3.26
RPDTGDDAAGVGFCYCAGSHKRKR [H11V] | 2.75
RPDTGDDAAGSGFCYCAGSHKRKR [H11S] | 3.24
RPDTGDDAAGHSFCYCAGSHKRKR [G12S] | 2.88
RPDTGDDAAGHPFCYCAGSHKRKR [G12P] | 3.1
RPDTGDDAAGHYFCYCAGSHKRKR [G12Y] | 2.71
RPDTGDDAAGHEFCYCAGSHKRKR [G12E] | 2.9
RPDTGDDAAGHTFCYCAGSHKRKR [G12T] | 3.62
RPDTGDDAAGHRFCYCAGSHKRKR [G12R] | 3.11
RPDTGDDAAGHHFCYCAGSHKRKR [G12H] | 3.05
RPDTGDDAAGHFFCYCAGSHKRKR [G12F] | 3.02
RPDTGDDAAGHCFCYCAGSHKRKR [G12C] | 2.45
RPDTGDDAAGHNFCYCAGSHKRKR [G12N] | 3.14

Variant | protein stability index
RPDTGDDAAGHKFCYCAGSHKRKR [G12K] | 3.21
RPDTGDDAAGHVFCYCAGSHKRKR [G12V] | 3.73
RPDTGDDAAGHAFCYCAGSHKRKR [G12A] | 2.52
RPDTGDDAAGHIFCYCAGSHKRKR [G12I] | 3.02
RPDTGDDAAGHWFCYCAGSHKRKR [G12W] | 2.36
RPDTGDDAAGHLFCYCAGSHKRKR [G12L] | 2.38
RPDTGDDAAGHDFCYCAGSHKRKR [G12D] | 3.14
RPDTGDDAAGHMFCYCAGSHKRKR [G12M] | 2.79
RPDTGDDAAGHQFCYCAGSHKRKR [G12Q] | 3.16
RPDTGDDAAGHGFSYCAGSHKRKR [C14S] | 5.02
RPDTGDDAAGHGFNYCAGSHKRKR [C14N] | 4.62
RPDTGDDAAGHGFRYCAGSHKRKR [C14R] | 4.87
RPDTGDDAAGHGFMYCAGSHKRKR [C14M] | 4.9
RPDTGDDAAGHGFGYCAGSHKRKR [C14G] | 4.85
RPDTGDDAAGHGFEYCAGSHKRKR [C14E] | 4.99
RPDTGDDAAGHGFYYCAGSHKRKR [C14Y] | 4.88
RPDTGDDAAGHGFPYCAGSHKRKR [C14P] | 4.31
RPDTGDDAAGHGFDYCAGSHKRKR [C14D] | 4.75
RPDTGDDAAGHGFVYCAGSHKRKR [C14V] | 4.3
RPDTGDDAAGHGFHYCAGSHKRKR [C14H] | 4.7
RPDTGDDAAGHGFAYCAGSHKRKR [C14A] | 4.73
RPDTGDDAAGHGFFYCAGSHKRKR [C14F] | 3.88
RPDTGDDAAGHGFLYCAGSHKRKR [C14L] | 3.66
RPDTGDDAAGHGFWYCAGSHKRKR [C14W] | 3.82

Variant | protein stability index
RPDTGDDAAGHGFKYCAGSHKRKR [C14K] | 4.98
RPDTGDDAAGHGFQYCAGSHKRKR [C14Q] | 4.7
RPDTGDDAAGHGFTYCAGSHKRKR [C14T] | 4.89
RPDTGDDAAGHGFIYCAGSHKRKR [C14I] | 4.3
RPDTGDDAAGHGWCYCAGSHKRKR [F13W] | 3.45
RPDTGDDAAGHGMCYCAGSHKRKR [F13M] | 3.25
RPDTGDDAAGHGQCYCAGSHKRKR [F13Q] | 3.9
RPDTGDDAAGHGNCYCAGSHKRKR [F13N] | 3.4
RPDTGDDAAGHGHCYCAGSHKRKR [F13H] | 3.86
RPDTGDDAAGHGECYCAGSHKRKR [F13E] | 3.99
RPDTGDDAAGHGACYCAGSHKRKR [F13A] | 3.12
RPDTGDDAAGHGPCYCAGSHKRKR [F13P] | 3.55
RPDTGDDAAGHGYCYCAGSHKRKR [F13Y] | 2.65
RPDTGDDAAGHGDCYCAGSHKRKR [F13D] | 3.82
RPDTGDDAAGHGVCYCAGSHKRKR [F13V] | 3.55
RPDTGDDAAGHGCCYCAGSHKRKR [F13C] | 2.19
RPDTGDDAAGHGKCYCAGSHKRKR [F13K] | 3.35
RPDTGDDAAGHGSCYCAGSHKRKR [F13S] | 2.84
RPDTGDDAAGHGLCYCAGSHKRKR [F13L] | 2.87
RPDTGDDAAGHGTCYCAGSHKRKR [F13T] | 3.34
RPDTGDDAAGHGICYCAGSHKRKR [F13I] | 3.02
RPDTGDDAAGHGGCYCAGSHKRKR [F13G] | 3.69
RPDTGDDAAGHGRCYCAGSHKRKR [F13R] | 2.94
RPDTGDDAAGHGFCYDAGSHKRKR [C16D] | 5.04

Variant | protein stability index
RPDTGDDAAGHGFCYFAGSHKRKR [C16F] | 4.72
RPDTGDDAAGHGFCYAAGSHKRKR [C16A] | 4.94
RPDTGDDAAGHGFCYEAGSHKRKR [C16E] | 5.33
RPDTGDDAAGHGFCVCAGSHKRKR [Y15V] | 2.8
RPDTGDDAAGHGFCCCAGSHKRKR [Y15C] | 2.68
RPDTGDDAAGHGFCICAGSHKRKR [Y15I] | 3.09
RPDTGDDAAGHGFCHCAGSHKRKR [Y15H] | 2.98
RPDTGDDAAGHGFCPCAGSHKRKR [Y15P] | 3.36
RPDTGDDAAGHGFCECAGSHKRKR [Y15E] | 2.77
RPDTGDDAAGHGFCACAGSHKRKR [Y15A] | 3.12
RPDTGDDAAGHGFCKCAGSHKRKR [Y15K] | 2.5
RPDTGDDAAGHGFCQCAGSHKRKR [Y15Q] | 2.74
RPDTGDDAAGHGFCRCAGSHKRKR [Y15R] | 3.41
RPDTGDDAAGHGFCLCAGSHKRKR [Y15L] | 2.84
RPDTGDDAAGHGFCWCAGSHKRKR [Y15W] | 2.82
RPDTGDDAAGHGFCMCAGSHKRKR [Y15M] | 2.89
RPDTGDDAAGHGFCSCAGSHKRKR [Y15S] | 2.77
RPDTGDDAAGHGFCGCAGSHKRKR [Y15G] | 3.35
RPDTGDDAAGHGFCNCAGSHKRKR [Y15N] | 2.43
RPDTGDDAAGHGFCDCAGSHKRKR [Y15D] | 3.36
RPDTGDDAAGHGFCTCAGSHKRKR [Y15T] | 2.51
RPDTGDDAAGHGFCFCAGSHKRKR [Y15F] | 2.6
